Measured values as given in patent US20060239990A1, “Protein Arginine N-Methyltransferase 2 (PRMT-2)” (priority 2003, published 2006).

Key:
IκB-α [1] = experiment: Immunoblot of nuclear IκB-α in transfected 293 cells; type: cell-based, human; conditions: transfected cells stimulated with TNF-α, vs PRMT2-N
Method: Small-scale preparation of nuclear extracts. A modified Dignam procedure (Dignam et al., Nucleic Acids Res. 11: 1475-89 (1983)) was used to prepare nuclear extracts from 293 cells. Cells were harvested, washed with PBS, resuspended in 1 ml Dignam buffer A, and transferred to pre-chilled microfuge tubes, which were spun at 1000 rpm for 1 minute. The supernatant was aspirated thoroughly, and pellets were carefully resuspended to avoid frothing, in 60 μl modified Dignam buffer A containing 0.1% Nonidet P-40 (NP40). Samples were incubated at 4° C. for approximately 10 minutes, and microcentrifuged for 10 minutes at 4° C. The cytoplasmic extract supernatant was diluted in 3 volumes of modified Dignam buffer D and frozen quickly. The pellets were resuspended in 40 μl Dignam buffer C. Samples were incubated for 15 minutes at 4° C. on a tumbler, and centrifuged again for 5 minutes at 4° C. The supernatant was diluted with 6 volumes of modified Dignam buffer D. Samples were frozen quickly in aliquots and stored at −70° C.
Western Blotting. Proteins resolved by SDS-polyacrylamide gel electrophoresis (PAGE) were transferred to polyvinylidene difluoride (PVDF) membranes. […]

p50/p65 complex = experiment: NF-κB DNA binding assay (EMSA); type: biochemical, human; conditions: 293 cells cotransfected with p50 and p65 expression vectors
Method: DNA binding assay. Electrophoretic mobility shift assays (EMSAs) were conducted on 10 μg of nuclear extract protein from 293 cells transiently transfected with pRSV p50/p65 expression constructs and pVR1012 PRMT-2-A/PRMT-2-N expression constructs. A modified Dignam procedure (Dignam et al. Nucleic Acids Res. 11, 1475-1489 (1983)) was used to prepare nuclear extracts from 293 cells. Perkins, N. D. et al. Science 275, 523-527 (1997). NF-KB DNA binding was assayed using a double-stranded 32P-labeled κB probe (Geneka Biotechnology). DNA binding assays were performed as described previously. Perkins et al. Science 275, 523-527 (1997). Supershifting was done using NF-κB p65 (C-20) and NF-κB p50 (H-119) (Santa Cruz). GST-PRMT-2-A fusion proteins were expressed in BL21 (DE3) cells and extracts were prepared as described previously. Smith, D. B. & Johnson, K. S. Gene 67, 31-40 (1988).

MHC Class I = experiment: Flow cytometry of endogenous MHC Class I in 293T cells; type: cell-based, human; conditions: 48 hrs after transfection
Method: 293 cells were transfected with 1 μg of the indicated reporter plasmids and 5 μg of either PRMT2-A or pVR1012 plasmids. Cells were harvested 36 hours post-transfection, and CAT assays were performed. Data shown are the mean (±SEM)-fold inhibition, in the presence of PRMT2-A, over a vector control of 3 independent experiments. […] 293T human embryonic kidney cells were transfected with HIV-luciferase reporter (WT) or ΔκB-luciferase reporter (ΔκB) and PRMT2 or control vector plasmid. 24 hrs after transfection, cells were treated with vehicle (left panel) or with TNF-α (20 ng/ml; middle panel) or PMA (10 ng/ml; right panel) as indicated, and luciferase activity was measured 48 hrs post transfection. […] 293T cells were transfected with HA-PRMT2 or HA-PRMT2-N. Transfected cells were detached after 48 hrs and analyzed by flow cytometry for MHC Class I and CD9 in HA-positive cells in PRMT2 (FIG. 2C) or PRMT2-N (FIG. 2D) transfected cells. […] 293T cells were transfected with plasmids as indicated where IKK2 or p65 was added as shown, and the κB luciferase reporter gene was used to monitor NF-κB activity 48 hrs after transfection. Values are expressed as fold stimulation compared to the control vector.

IκB-α [2] = experiment: Co-immunoprecipitation with endogenous IκB-α in 293 cells; type: binding, human; conditions: HA-tagged constructs in 293 cells
Excerpt: A polyclonal antibody to recombinant PRMT2 was used to examine the association between endogenous PRMT2 and IκB-α in vivo. […] The domain of IκB-α required for association with PRMT2 was mapped using in vivo immunoprecipitation assays where HA-tagged PRMT2 was coexpressed with truncation mutants of His-tagged IκB-α (FIG. 5B) in 293 cells. The ankyrin domain was both necessary and sufficient for this association (FIG. 5D, lanes 1 and 2). The domain of PRMT2 that interacted with endogenous IκB-α was mapped by immunoprecipitation following expression HA-tagged PRMT2 truncation mutants (FIG. 5C). […] When the ratios of PRMT2 or PRMT2-A binding to IκB-α were compared, both interacted with IκB-α with similar affinity.

293 cells = experiment: TNF-α-induced apoptosis in transfected 293 cells; type: cell-based, human; conditions: TNF-α 1000 U/ml 24 hours
Method: Apoptosis analysis. Apoptosis in PRMT-2-expressing 293 cells was analyzed as follows. Cells were seeded at 2.5×10^5 per well in 6 well plates. The next day, empty vector, mutant IκBα (S32A/S36A), RelA or PRMT-2 was co-transfected with CD2 expression vector. Twenty-four hours after transfection cells were stimulated with TNF-α (1000 U/ml) for 24 hours. Both floating and attached cells in each well were harvested by EDTA treatment. Cells were stained with APC-labeled anti-CD2 antibody (BD Bioscience) in SM buffer (PBS containing 2% FCS). After washing twice with PBS, cells were stained with FITC-labeled Annexin V and propidium iodide using Annexin V FITC Apoptosis Detection Kit (Oncogene), and analyzed by flow cytometry (FACS Caliber, BD Bioscience).

Sequence of IκB-α (P25963 whole entry, the tested form may be a part): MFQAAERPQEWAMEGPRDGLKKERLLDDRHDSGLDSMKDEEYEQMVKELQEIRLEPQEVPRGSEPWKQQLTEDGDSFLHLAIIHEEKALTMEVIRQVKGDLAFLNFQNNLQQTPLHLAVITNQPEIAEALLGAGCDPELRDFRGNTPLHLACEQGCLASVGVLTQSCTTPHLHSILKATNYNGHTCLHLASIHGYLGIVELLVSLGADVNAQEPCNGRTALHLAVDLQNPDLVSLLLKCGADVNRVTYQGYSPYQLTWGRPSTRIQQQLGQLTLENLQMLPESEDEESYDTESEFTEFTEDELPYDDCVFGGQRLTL

B1: PRMT2: human PRMT-2 polypeptide, SEQ ID NO:2, expressed from pVR1012 vector with HA-tag (protein, listed as Homo sapiens)
chain: MATSGDCPRSESQGEEPAECSEAGLLQEGVQPEEFVAIADYAATDETQLSFLRGEKILILRQTTADWWWGERAGCCGYIPANHVGKHVDEYDPEDTWQDEEYFGSYGTLKLHLEMLADQPRTTKYHSVILQNKESLTDKVILDVGCGTGIISLFCAHYARPRAVYAVEASEMAQHTGQLVLQNGFADIITVYQQKVEDVVLPEKVDVLVSEWMGTCLLFEFMIESILYARDAWLKEDGVIWPTMAALHLVPCSADKDYRSKVLFWDNAYEFNLSALKSLAVKEFFSKPKYNHILKPEDCLSEPCTILQLDMRTVQISDLETLRGELRFDIRKAGTLHGFTAWFSVHFQSLQEGQPPQVLSTGPFHPTTHWKQTLFMMDDPVPVHTGDVVTGSVVLQRNPVWRRHMSVALSWAVTSRQDPTSQKVGEKVFPIWR
modifications: HA tag
increase in nuclear IκB-α protein levels over the mutant control (IκB-α [1]): ~8 fold
NF-κB DNA binding in nuclear extracts of transfected cells (p50/p65 complex): inhibited DNA binding of the p50/p65 complex in a dose-dependent manner
endogenous MHC Class I cell surface expression (MHC Class I): decreased endogenous MHC Class I cell surface expression
association with endogenous IκB-α (IκB-α [2]): interacted
susceptibility to TNF-induced cell death (293 cells): increased their susceptibility to TNF-induced cell death
